In this assay the target is Tag5-161P2F10B, purified recombinant extracellular domain (ECD) of 161P2F10B (amino acids 46-875) (human) (UniProt O14638). In words: SPR, MAb captured on CM5 chip, recombinant 161P2F10B 1-100 nM injected.

B1: H16-1.92.1.1 (antibody, part only; not given: light chain, V domains shown, part only)
VH: EVLLVESGPGLVKPSETLSLTCTVSGGSISSSSYFWGWIRQPPGKGLEWIGSIYYSGNTYYNPSLKSRVTISVDTSKNRFSLKLSSVTAADTAVYCCASATTVTTAFDIWGQGTMVTVSSASTKGPSVFPLAPSS
For B1, the Kd – broadly, the equilibrium constant for the complex coming apart – turned out to be 9.8 nM; the koff (in general, a measure of how fast the partners let go of each other) came to 0.00036 s⁻¹; the kon – broadly, the second-order rate constant of association – amounted to 37000 M⁻¹ s⁻¹.

B2: H16-1.29.1.1 (antibody, part only; not given: light chain, V domains shown, part only)
VH: CRLVESGAEVKKPGASVKVSCKASGYTFTGYYMHWVRQAPGQGLEWMGWINPNSGGTNYAQKFQGRVTMTRDTSISTAYMELSRLRSDDTAVYYCARDQVDIVATRYYYYYYGMDVWGQGTTVTVSSASTKGPSVFPLAPSSKST
With B2, the Kd came out at 26 nM, the koff is 0.00083 s⁻¹ and the kon worked out at 32000 M⁻¹ s⁻¹.

(Values after patent US20060275211A1.)
